The data set has as its target RecA (Escherichia coli BJ5183, UniProt P0A7G6 1-353). Nature of the data set: EMSA; no nucleotide cofactor; 1 mM Mg2+ (10 mM in Fig. S1B); about 5 nt per RecA; 25 mM Tris pH 7.6, 1 mM MgCl2 (10 mM in supplementary assays), 1 mM DTT, 37 C, 10 min, 12 pmol X1 in 10 ul; 2% native agarose gel. The note with it: protein: recombinant; tags: His tag (pET28a, Ni purification); single strand. For orientation: Mobility shift assays separate free from complexed probe on a gel.

Chain of RecA (P0A7G6 whole entry): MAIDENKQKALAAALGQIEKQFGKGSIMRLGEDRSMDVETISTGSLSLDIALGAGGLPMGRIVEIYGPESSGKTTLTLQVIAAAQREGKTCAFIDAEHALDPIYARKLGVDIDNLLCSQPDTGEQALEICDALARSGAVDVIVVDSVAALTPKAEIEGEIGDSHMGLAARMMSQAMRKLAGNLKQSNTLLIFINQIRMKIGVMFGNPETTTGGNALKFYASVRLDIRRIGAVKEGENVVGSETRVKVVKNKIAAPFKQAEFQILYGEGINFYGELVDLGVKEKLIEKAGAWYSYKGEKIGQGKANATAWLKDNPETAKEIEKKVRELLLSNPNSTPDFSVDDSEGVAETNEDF

B1: X1 (54 nt) (ssDNA)
DNA: TACGTTAACAAAAAGTCAGATATGGACCTTGCTGCTAAAGGTCTAGGAGCTAAA
For the molecule B1, the binding result is “binds”.

The record behind these values is article PMC5043356, “A general solution for opening double-stranded DNA for isothermal amplification”.
